Reference: patent US20120220540A1, “SYNBODIES TO AKT1” (ARIZONA BOARD OF REGENTS FOR AND ON BEHALF OF ARIZONA STATE …, priority 2009, published 2012)
One block for each molecule: values may come before it. Square brackets hold non-standard residues; d marks the D form. Ends that are not written are not given here. * marks the point of attachment. Biotin = O=C1N[C@H]2[C@H](CS[C@H]2CCCCC(=O)*)N1; Oct = octanoic acid spacer; oct = octanoic acid spacer; StBu = CC(C)(C)S*

Columns and labels:
AKT1 [1] = target: AKT1 (Homo sapiens, UniProt P31749); experiment: KD of synbody variants (Tables 2 and 4); assay type: binding; parameters: key to KD (nM): n.b. = no binding
AKT1 (Homo sapiens, UniProt P31749), sequence (P31749 whole entry): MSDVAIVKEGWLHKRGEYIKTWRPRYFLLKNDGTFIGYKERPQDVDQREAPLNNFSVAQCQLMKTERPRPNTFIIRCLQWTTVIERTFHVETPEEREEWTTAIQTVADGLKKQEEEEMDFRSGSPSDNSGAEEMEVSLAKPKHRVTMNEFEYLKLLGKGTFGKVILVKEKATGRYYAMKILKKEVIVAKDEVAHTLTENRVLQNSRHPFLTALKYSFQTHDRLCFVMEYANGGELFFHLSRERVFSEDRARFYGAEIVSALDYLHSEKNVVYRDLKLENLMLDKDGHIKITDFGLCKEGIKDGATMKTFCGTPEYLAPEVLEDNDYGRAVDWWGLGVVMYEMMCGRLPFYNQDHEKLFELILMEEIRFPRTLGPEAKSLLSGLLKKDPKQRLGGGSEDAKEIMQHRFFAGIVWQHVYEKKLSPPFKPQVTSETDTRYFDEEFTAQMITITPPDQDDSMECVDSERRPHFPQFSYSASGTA
Method: Selection of screening of amino acid variants has been described above. Variants including modifications of conjugation chemistry, linker, spacers or adjunct moieties can be screened for retention of binding to AKT1. In some methods, either the AKT1 or the synbody is immobilized. Optionally binding of a variant is tested in competition with the lead AKT1 synbody discussed above. In one format, AKT1 is immobilized to a support and synbody variants are tested for binding by surface plasmon resonance.
The following synbodies have the same peptides as the lead synbody and are synthesized off of a lysine core but include the addition of different functional groups synthesized between the C-terminus of the peptide and the amine groups of the lysine scaffold (Table 2). Synbodies were conjugated with either a C-terminal cysteine protected against disulfide formation using a sulfo-tert-butyl group, or with different biotin-conjugated lysines where the spacer between the lysine and the backbone varied. For example, in synbody 5 the biotin was attached to the amino group of the side chain, synbody 6 used a caproic acid spacer, while synbody 7 used an eleven-unit polyethylene glycol spacer.
The following mutant forms of the lead peptide have been made in which either one or more amino acids are substituted or the orientation of the peptides on the linker is reversed (Table 4).

AKT2 [2] = target: AKT2 (Homo sapiens, UniProt P31751); experiment: Immunoprecipitation of purified AKT2 from cell lysate with synbody (Western blot); assay type: binding; conditions: immunoprecipitate of purified 250 ng AKT2 from 500 mg of cell lysate
AKT2 (Homo sapiens, UniProt P31751), sequence (P31751 whole entry): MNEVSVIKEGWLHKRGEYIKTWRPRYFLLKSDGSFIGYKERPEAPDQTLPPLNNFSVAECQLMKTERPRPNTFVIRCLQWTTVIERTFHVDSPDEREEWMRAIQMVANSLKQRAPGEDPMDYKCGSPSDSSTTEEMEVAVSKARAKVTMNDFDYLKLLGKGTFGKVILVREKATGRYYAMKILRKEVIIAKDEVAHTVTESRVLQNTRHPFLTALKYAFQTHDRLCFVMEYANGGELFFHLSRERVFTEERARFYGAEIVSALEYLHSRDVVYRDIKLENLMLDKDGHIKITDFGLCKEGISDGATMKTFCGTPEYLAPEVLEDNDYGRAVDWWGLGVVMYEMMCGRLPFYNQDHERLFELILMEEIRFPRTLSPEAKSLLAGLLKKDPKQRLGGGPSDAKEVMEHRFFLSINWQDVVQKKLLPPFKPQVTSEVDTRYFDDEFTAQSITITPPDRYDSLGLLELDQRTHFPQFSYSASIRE
Method: (§1) The synbody was tested for binding to AKT1 and in some experiments, AKT2 and AKT3.

AKT3 [3] = target: AKT3 (Homo sapiens, UniProt Q9Y243); experiment: Immunoprecipitation of purified AKT3 from cell lysate with synbody (Western blot); assay type: binding; conditions: immunoprecipitate of purified 250 ng AKT3 from 500 mg of cell lysate
AKT3 (Homo sapiens, UniProt Q9Y243), sequence (Q9Y243 whole entry): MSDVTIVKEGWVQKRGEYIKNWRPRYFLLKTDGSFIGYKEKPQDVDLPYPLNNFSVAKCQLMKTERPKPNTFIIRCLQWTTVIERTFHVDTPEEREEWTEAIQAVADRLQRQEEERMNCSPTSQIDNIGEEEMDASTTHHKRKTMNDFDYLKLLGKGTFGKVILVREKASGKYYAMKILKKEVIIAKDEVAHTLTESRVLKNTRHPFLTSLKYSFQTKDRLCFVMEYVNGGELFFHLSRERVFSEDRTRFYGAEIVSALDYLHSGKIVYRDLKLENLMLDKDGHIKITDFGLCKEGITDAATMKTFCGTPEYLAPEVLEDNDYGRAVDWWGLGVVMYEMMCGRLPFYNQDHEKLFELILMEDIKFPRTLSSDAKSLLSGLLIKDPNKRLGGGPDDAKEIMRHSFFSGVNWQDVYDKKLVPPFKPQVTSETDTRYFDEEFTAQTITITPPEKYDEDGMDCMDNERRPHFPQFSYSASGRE
Method: as §1

AKT1 [4] = target: T1, AKT1 (human, UniProt P31749 1-480); experiment: method not stated (Table 2)
T1 construct: also called human AKT1; AKT1_HUMAN
T1 sequence (P31749 whole entry): as the sequence (P31749 whole entry) above

AKT1 [5] = target: T1, AKT1; experiment: method not stated (Table 4)
AKT1 [6] = target: T1, AKT1; experiment: SPR, synbody at 12.5 and 6.25 nM injected over immobilized AKT1, 1:1 kinetic fit
Method: as §1

AKT2 [7] = target: AKT2 (human, UniProt P31751 1-481); experiment: immunoprecipitation of 250 ng purified AKT2 from cell lysate with the synbody, Western blot
AKT2 (human, UniProt P31751 1-481), sequence (P31751 whole entry): as the sequence (P31751 whole entry) above
Method: as §1

AKT3 [8] = target: AKT3 (human, UniProt Q9Y243 1-479, limits assumed); experiment: immunoprecipitation of 250 ng purified AKT3 from cell lysate with the synbody, Western blot
AKT3 (human, UniProt Q9Y243 1-479, limits assumed), sequence (Q9Y243 whole entry): as the sequence (Q9Y243 whole entry) above
Method: as §1

AKT1 [9] = target: T1, AKT1; experiment: SPR, 12.5 and 6.25 nM synbody injected over AKT1 surface, 1:1 kinetic fit; SPR, synbody injected over AKT1 surface, 1:1 kinetic fit
Method: as §1

AKT1 [10] = target: T1, AKT1; experiment: pull-down of S35-labeled AKT1 with synbody immobilized via biotin on magnetic beads, 1:1 fit; pull-down of S35-labeled AKT1, synbody on magnetic bead via biotin
Method: as §1

[11] = Table 2, synbodies constructed from a lysine scaffold

Molecule: CC[C@H](C)[C@H](NC(=O)[C@H](Cc1c[nH]cn1)NC(=O)[C@H](C)NC(=O)[C@H](Cc1c[nH]c2ccccc12)NC(=O)CNC(=O)[C@H](CCCNC(=N)N)NC(=O)[C@@H](N)Cc1ccccc1)C(=O)N[C@@H](Cc1ccccc1)C(=O)N[C@@H](Cc1ccccc1)C(=O)NCC(=O)N1CCC[C@H]1C(=O)N[C@@H](Cc1c[nH]cn1)C(=O)N[C@H](C(=O)N[C@H](C(=O)N[C@@H](Cc1ccc(O)cc1)C(=O)N[C@@H](CCCNC(=N)N)C(=O)NCC(=O)NCC(=O)N[C@@H](CO)C(=O)NCC(=O)NCCCC[C@H](NC(=O)CNC(=O)[C@H](CO)NC(=O)CNC(=O)[C@H](Cc1ccc(O)cc1)NC(=O)[C@H](CCCNC(=N)N)NC(=O)[C@H](CC(N)=O)NC(=O)[C@H](Cc1ccc(O)cc1)NC(=O)[C@H](C)NC(=O)[C@H](Cc1c[nH]cn1)NC(=O)[C@H](CCCNC(=N)N)NC(=O)[C@@H](NC(=O)[C@H](CCC(N)=O)NC(=O)[C@H](CCCNC(=N)N)NC(=O)[C@H](CCC(N)=O)NC(=O)[C@@H]1CCCN1C(=O)[C@@H](NC(=O)[C@@H](NC(=O)[C@H](CCCCN)NC(=O)[C@H](Cc1c[nH]cn1)NC(=O)[C@H](C)N)C(C)C)C(C)C)[C@@H](C)CC)C(=O)N[C@@H](CSSC(C)(C)C)C(N)=O)[C@@H](C)CC)C(C)C [Akt26-23KC]
- Kd (AKT1 [1]; [11]): 4 nM

Molecule: CC[C@H](C)[C@H](NC(=O)[C@H](Cc1c[nH]cn1)NC(=O)[C@H](C)NC(=O)[C@H](Cc1c[nH]c2ccccc12)NC(=O)CNC(=O)[C@H](CCCNC(=N)N)NC(=O)[C@@H](N)Cc1ccccc1)C(=O)N[C@@H](Cc1ccccc1)C(=O)N[C@@H](Cc1ccccc1)C(=O)NCC(=O)N1CCC[C@H]1C(=O)N[C@@H](Cc1c[nH]cn1)C(=O)N[C@H](C(=O)N[C@H](C(=O)N[C@@H](Cc1ccc(O)cc1)C(=O)N[C@@H](CCCNC(=N)N)C(=O)NCC(=O)NCC(=O)N[C@@H](CO)C(=O)NCC(=O)NCCCC[C@H](NC(=O)CNC(=O)[C@H](CO)NC(=O)CNC(=O)[C@H](Cc1ccc(O)cc1)NC(=O)[C@H](CCCNC(=N)N)NC(=O)[C@H](CC(N)=O)NC(=O)[C@H](Cc1ccc(O)cc1)NC(=O)[C@H](C)NC(=O)[C@H](Cc1c[nH]cn1)NC(=O)[C@H](CCCNC(=N)N)NC(=O)[C@@H](NC(=O)[C@H](CCC(N)=O)NC(=O)[C@H](CCCNC(=N)N)NC(=O)[C@H](CCC(N)=O)NC(=O)[C@@H]1CCCN1C(=O)[C@@H](NC(=O)[C@@H](NC(=O)[C@H](CCCCN)NC(=O)[C@H](Cc1c[nH]cn1)NC(=O)[C@H](C)N)C(C)C)C(C)C)[C@@H](C)CC)C(=O)N[C@@H](CCCCNC(=O)CCCC[C@@H]1SC[C@@H]2NC(=O)N[C@@H]21)C(N)=O)[C@@H](C)CC)C(C)C [lead synbody]
- cross-reactivity with AKT2 (AKT2 [2]): little cross-reactivity
- cross-reactivity with AKT3 (AKT3 [3]): little cross-reactivity

Molecule: AHKVVPQRQIRHAYNRYGSGKCFRGWAHIFFGPHVIYRGGSG(oct) (AHKVVPQRQIRHAYNRYGSGKCFRGWAHIFFGPHVIYRGGSG-oct; not fully specified; printed as AHKVVPQRQIRHAYNRYGSGKCFRGWAHIFFGPHVIYRGGSG(oct); also: branched on Lys21 side chain (linear writing)) [Akt26-23(Oct)KC]
- KD (nM) (AKT1 [1]; [11]): n.b.

B1: Akt26(Oct)-23KC (designed binder)
chain 1: AHKVVPQRQIRHAYNRYGSG[Oct]KC(StBu)
chain 2: FRGWAHIFFGPHVIYRGGSG
modifications: numbers in words are those of the source; also: bond at chain A 21 to a chain's C-terminus
notes: Branched molecule; They shift if the listing holds a placeholder for the spacer
- Kd (AKT1 [4]): 6 nM

B2: Akt26-23KKbiotin (designed binder)
chain 1: AHKVVPQRQIRHAYNRYGSGKK(Biotin)
chain 2: FRGWAHIFFGPHVIYRGGSG
modifications: also: bond at chain A 21 to a chain's C-terminus
notes: I split it into two chains; The name runs over rows r11 and r12; also called synbody 5
- Kd (AKT1 [4]): 4 nM

B6: lead synbody (Akt26 and Akt23 on a lysine linker, second lysine with biotin) (designed binder)
chain 1: AHKVVPQRQIRHAYNRYGSGKK
chain 2: FRGWAHIFFGPHVIYRGGSG
modifications: not fully specified (some residues); also: bond at chain A 21 to a chain's C-terminus
notes: also called the synbody; first generation synbody
- koff (AKT1 [6]): 0.000295 s⁻¹
- binding result (AKT2 [7]): binds
- binding result (AKT3 [8]): binds
- Kd (AKT1 [9]): 1.49 nM
- Kd (AKT1 [10]): 4.9 nM

B8: m1-Akt26-23 KC (designed binder)
chain 1: AHKVVPQRQMRHAYSRYGSGKC
chain 2: FRGWAHIFFGPHVIYRGGSG
modifications: also: bond at chain A 21 to a chain's C-terminus
notes: Mutant peptide on a lysine scaffold
- Kd (AKT1 [5]): 15 nM

B9: Akt26-23(hex)KC (designed binder)
chain 1: AHKVVPQRQIRHAYNRYGSGKC(StBu)
chain 2: FRGWAHIFFGPHVIYRGGSG
modifications: not fully specified (C-terminus); also: linker at chain A 21 to a chain's C-terminus via hex
notes: Branched molecule
- Kd (AKT1 [4]): 3 nM

The next lines start with the values.

- KD (nM) (AKT1 [1]; [11]): n.b.
Molecule: AHKVVPQRQIRHAYNRYGSG(oct)KCFRGWAHIFFGPHVIYRGGSG(oct) (AHKVVPQRQIRHAYNRYGSG[oct]KCFRGWAHIFFGPHVIYRGGSG-oct; not fully specified; printed as AHKVVPQRQIRHAYNRYGSG(oct)KCFRGWAHIFFGPHVIYRGGSG(oct); numbers in words are those of the source; also: branched on Lys21 side chain (linear writing)) [Akt26-(Oct)-23(Oct)KC]

- KD (nM) (AKT1 [1]; Table 4, synbodies constructed from mutant peptides on lysine scaffold): n.b.
Molecule: AWKVVPQRQIRHAYNRYGSGKCFRGWAHIFFGPHVIYRGGSG [m3-Akt26-23 KC]

- Kd (AKT1 [5]): ~10 nM
B3: m6-Akt26-23 KC (designed binder)
chain 1: AWKVVPQRWIRYAYNRYGSGKC
chain 2: FRGWAHIFFGPHVIYRGGSG
modifications: also: bond at chain A 21 to a chain's C-terminus
notes: Mutant peptide on a lysine scaffold; Branched molecule, which I split into two chains

- Kd (AKT1 [5]): 5 nM
B4: m2-Akt26-23 KC (designed binder)
chain 1: AHKVVYQRQIRFAYNRYGSGKC
chain 2: FRGWAHIFFGPHVIYRGGSG
modifications: also: bond at chain A 21 to a chain's C-terminus
notes: as for B3

- Kd (AKT1 [5]): 8 nM
B5: m5-Akt26-23 KC (designed binder)
chain 1: AWKVVPQRWIRHAYNRYGSGKC
chain 2: FRGWAHIFFGPHVIYRGGSG
modifications: also: bond at chain A 21 to a chain's C-terminus
notes: as for B3

- Kd (AKT1 [5]): 5 nM
B7: m4-Akt26-23 KC (designed binder)
chain 1: AHKVVPQRWIRHAYNRYGSGKC
chain 2: FRGWAHIFFGPHVIYRGGSG
modifications: also: bond at chain A 21 to a chain's C-terminus
notes: as for B3
